# Key:
# [1] = tested on: SEQID-00338 kinase activity (AMP + ATP→ADP); test: Kinase activity of SEQID-00338 (ADP-Glo Max Assay); type: biochemical; details: 7 μg/mL, 30 minute reaction at 30° C.
# Procedure: The ADP-Glo™ Max Assay was obtained from Promega (Catalog number V7001, Madison, Wis.). Adenosine Monophosphate was obtained from Sigma-Aldrich (Catalog number A1752, St. Louis, Mo.). 5× Kinase Buffer was prepared w/ 1.211 g Tris Base (Catalog number BP152-2, Fisher Bioreagents, Pittsburgh, Pa.), 692 μL 12% hydrochloric acid solution (Catalog number BDH3026-500MLP, VWR, Radnor, Pa.), 10.0 mL 500 mM magnesium chloride (Catalog number BP214-500, Fisher Bioreagents, Pittsburgh, Pa.) and the volume brought to 50 mL with MilliQ water and filtered through 0.22 μm PES filter (Catalog number SCGP00525, Millipore, Billerica, Mass.) into a sterile 50 mL tube.
# Twelve his-tag purified mutant proteins and the wild-type protein at 35 μg/mL in Tris buffer were serially diluted to 7.0 and 1.4 μg/mL. Prepared kinase reaction mix at 0.5 mM AMP/0.5 mM ATP to test for activity and at 0 mM AMP/0 mM ATP to assay background activity by diluting 5× Kinase Buffer with appropriate volumes of 10 mM AMP and 10 mM ATP in MilliQ water. Duplicate reactions were prepared by mixing 9 μL of the reaction mixture with 6 μL of diluted SEQID-00338, mixing by pipetting up and down and dispensing 5 μL into a 384-well white OptiPlate (PerkinElmer, Waltham, Mass.). An ADP standard curve was prepared by serially diluting 4 mM ADP in MilliQ water and adding kinase buffer to 1× for a standard at 0.0005, 0.001, 0.005, 0.01, 0.05, 0.1, 0.5, 1, 2, 3, and 4 mM ADP. The plate was covered with a foil plate seal and incubated at 30° C. for 30 min. Following the kinase reaction, 5 μL of ADP-Glo™ Reagent was added to each well. The plate was sealed with a foil plate seal and placed on a horizontal plate shaker at 450 rpm for 2 minutes at room temperature. The plate was removed from the plate shaker and incubated at room temperature for 40 minutes. The plate was then centrifuged for 15 seconds at 1109×rcf and 10 μL of ADP-Glo™ Max Detection Reagent was added. The plate was sealed with a foil plate seal and shaken on a horizontal plate shaker at 450 rpm at room temperature for 2 minutes. The plate was then removed from the plate shaker and incubated at room temperature for 60 minutes. The plate was centrifuged for 15 seconds at 1109×rcf and the luminescence read on an EnspireAlpha plate reader (PerkinElmer, Waltham, Mass.).
# The ADP standard curve was used to determine the concentration of ADP in sample wells in the presence or absence of substrate. Concentrations were determined by performing a non-linear 4 parameter logistic on the X=log(X) transformed ADP standard luminescence values. […] Where the background concentration of ADP in the absence of substrate was calculable the average of those values were subtracted from the calculated ADP concentration in the substrate incubated wells. Activity knock out was calculated by percentage activity relative to purified wild-type protein at the same concentration.
# [2] = tested on: Pancreatin; type: in vitro ADME, Porcine
# Procedure: Control samples were protease-free.
# Analyses were performed using an Agilent 1100 series system.
# [3] = Intact half-life during simulated gastric fluid (SGF) digestion
# [4] = native and modified forms of SEQID-00363, gel electrophoresis
Molecule,AVG percent activity relative to purified wild-type protein [1],Free Leu (μM) at 120 min time point of Pancreatin digest [2],"SGF Half-life (t½) [3, 4]","SGF Half-life (t½) ([3]; SGF pH 1.5, pepsin:polypeptide 1:20 w/w, 37° C., intact protein)"
"D91I: single amino acid mutant of SEQID-00338, position 91 (protein, listed as Saccharomyces cerevisiae, source: /note=""strain ATCC 204508 / S288c"") MSSSESIRMVLIGPPGAGKGTQAPNLQERFHAAHLATGDMLRSQIAKGTQLGLEAKKIMDQGGLVSDDIMVNMIKDELTNNPACKNGFILIGFPRTIPQAEKLDQMLKEQGTPLEKAIELKVDDELLVARITGRLIHPASGRSYHKIFNPPKEDMKDDVTGEALVQRSDDNADALKKRLAAYHAQTEPIVDFYKKTGIWAGVDASQPPATVWADILNKLGKD",0.4%,,,
"Reduced and alkylated SEQID-00363: SEQID-00363 with disulfide bonds reduced and alkylated (protein, disulfides reduced and alkylated; Aspergillus niger) ATLDSWLSNEATVARTAILNNIGADGAWVSGADSGIVVASPSTDNPDYFYTWTRDSGLVLKTLVDLFRNGDTSLLSTIENYISAQAIVQGISNPSGDLSSGAGLGEPKFNVDETAYTGSWGRPQRDGPALRATAMIGFGQWLLDNGYTSTATDIVWPLVRNDLSYVAQYWNQTGYDLWEEVNGSSFFTIAVQHRALVEGSAFATAVGSSCSWCDSQAPEILCYLQSFWTGSFILANFDSSRSGKDANTLLGSIHTFDPEAACDDSTFQPCSPRALANHKEVVDSFRSIYTLNDGLSDSEAVAVGRYPEDTYYNGNPWFLCTLAAAEQLYDALYQWDKQGSLEVTDVSLDFFKALYSDAATGTYSSSSSTYSSIVDAVKTFADGFVSIVETHAASNGSMSEQYDKSDGEQLSARDLTWSYAALLTANNRRNSVVPASWGETSASSVPGTCAATSAIGTYSSVTVTSWPSIVATGGTTTTATPTGSGSVTSTSKTTATASKTSTSTSSTSCTTPTAVAVTFDLTATTTYGENIYLVGSISQLGDWETSDGIALSADKYTSSDPLWYVTVTLPAGESFEYKFIRIESDDSVEWESDPNREYTVPQACGTSTATVTDTWR",,598.1 µM,20.4 min,
"Heat-denatured SEQID-00363: SEQID-00363 30 g/L in 10% PBS rapidly heated to 95° C. (protein, heat-denatured; Aspergillus niger) ATLDSWLSNEATVARTAILNNIGADGAWVSGADSGIVVASPSTDNPDYFYTWTRDSGLVLKTLVDLFRNGDTSLLSTIENYISAQAIVQGISNPSGDLSSGAGLGEPKFNVDETAYTGSWGRPQRDGPALRATAMIGFGQWLLDNGYTSTATDIVWPLVRNDLSYVAQYWNQTGYDLWEEVNGSSFFTIAVQHRALVEGSAFATAVGSSCSWCDSQAPEILCYLQSFWTGSFILANFDSSRSGKDANTLLGSIHTFDPEAACDDSTFQPCSPRALANHKEVVDSFRSIYTLNDGLSDSEAVAVGRYPEDTYYNGNPWFLCTLAAAEQLYDALYQWDKQGSLEVTDVSLDFFKALYSDAATGTYSSSSSTYSSIVDAVKTFADGFVSIVETHAASNGSMSEQYDKSDGEQLSARDLTWSYAALLTANNRRNSVVPASWGETSASSVPGTCAATSAIGTYSSVTVTSWPSIVATGGTTTTATPTGSGSVTSTSKTTATASKTSTSTSSTSCTTPTAVAVTFDLTATTTYGENIYLVGSISQLGDWETSDGIALSADKYTSSDPLWYVTVTLPAGESFEYKFIRIESDDSVEWESDPNREYTVPQACGTSTATVTDTWR",,763.5 µM,20.4 min,
"SEQID-00298 (BS): nutritive polypeptide naturally produced in Cow (protein, listed as Bos taurus) MGLSDGEWQLVLNAWGKVEADVAGHGQEVLIRLFTGHPETLEKFDKFKHLKTEAEMKASEDLKKHGNTVLTALGGILKKKGHHEAEVKHLAESHANKHKIPVKYLEFISDAIIHVLHAKHPSDFGADAQAAMSKALELFRNDMAAQYKVLGFHG",,1030.8 µM,,0.1 min

# Continued, in another order:
AVG percent activity relative to purified wild-type protein [1],Molecule,Free Leu (μM) at 120 min time point of Pancreatin digest [2],"SGF Half-life (t½) [3, 4]","SGF Half-life (t½) ([3]; SGF pH 1.5, pepsin:polypeptide 1:20 w/w, 37° C., intact protein)"
1.2%,"R42Q: single amino acid mutant of SEQID-00338, position 42 (protein, listed as Saccharomyces cerevisiae, source: /note=""strain ATCC 204508 / S288c"") MSSSESIRMVLIGPPGAGKGTQAPNLQERFHAAHLATGDMLQSQIAKGTQLGLEAKKIMDQGGLVSDDIMVNMIKDELTNNPACKNGFILDGFPRTIPQAEKLDQMLKEQGTPLEKAIELKVDDELLVARITGRLIHPASGRSYHKIFNPPKEDMKDDVTGEALVQRSDDNADALKKRLAAYHAQTEPIVDFYKKTGIWAGVDASQPPATVWADILNKLGKD",,,
1.9%,"R42T: single amino acid mutant of SEQID-00338, position 42 (protein, listed as Saccharomyces cerevisiae, source: /note=""strain ATCC 204508 / S288c"") MSSSESIRMVLIGPPGAGKGTQAPNLQERFHAAHLATGDMLTSQIAKGTQLGLEAKKIMDQGGLVSDDIMVNMIKDELTNNPACKNGFILDGFPRTIPQAEKLDQMLKEQGTPLEKAIELKVDDELLVARITGRLIHPASGRSYHKIFNPPKEDMKDDVTGEALVQRSDDNADALKKRLAAYHAQTEPIVDFYKKTGIWAGVDASQPPATVWADILNKLGKD",,,
0.9%,"D91F: single amino acid mutant of SEQID-00338, magnesium ion binding site position 91 (protein, listed as Saccharomyces cerevisiae, source: /note=""strain ATCC 204508 / S288c"") MSSSESIRMVLIGPPGAGKGTQAPNLQERFHAAHLATGDMLRSQIAKGTQLGLEAKKIMDQGGLVSDDIMVNMIKDELTNNPACKNGFILFGFPRTIPQAEKLDQMLKEQGTPLEKAIELKVDDELLVARITGRLIHPASGRSYHKIFNPPKEDMKDDVTGEALVQRSDDNADALKKRLAAYHAQTEPIVDFYKKTGIWAGVDASQPPATVWADILNKLGKD",,,

# From patent US20160228506A1, “Compositions and Formulations for Prevention and Reduction of Tumorigenesis, Cancer Cell Proliferation and Invasion, and Methods of Production and Use Thereof in Cancer Treatment” (PRONUTRIA, INC., priority 2013, published 2016)
